From the nanobody polyreactivity screen of Harvey et al. (2022)

Assay: yeast display, Sf9 membrane polyspecificity reagent, FACS + sequencing; frameworks hold sequencing errors
In short: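 Polyreactivity labels are assigned by the sorting gate from which each nanobody was recovered. The gates were low and high (top ~1%), set on anti-HA fluorescence for expression and streptavidin fluorescence for reagent binding. Before sorting, galactose-induced (36–48 hours) yeast display cells were stained for 1 hour at 4 °C with 10% biotinylated, detergent-solubilized Sf9 membrane reagent.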

Row | Sequence | polyreactivity (PSR sort gate)
1 | QVQLVESGGGLVQAGGSLRLSCAASGNIFSYNAMGWYRQAPGKERELVAGISTAGTTSYADSVKGRFTISRDNAKNTVYLQLNSLKPEDTAVYYCAKRRYYWTNLHYFLGYDYWGQGTQVTVSS | low polyreactivity
2 | QVQLVESGVGIVEAGGSLRLSCAASGRSFTYNAMVWYRQAPGKERELVAAISNTGSTYYADSVKGRFTISRDNAKNSVYLQMNCVKPEDTAVYYCAADRAEFRQDDDPGESNYWGQGTQVTVSS | low polyreactivity
3 | QVQLVESGGGLVQAGGSLRLSCAASGSIFAYNAMGWYRQAPGKERELVAAITGSGGSTDYADSVKGRFTISRDNAKNTVYLQMNSLKPEDTAVYYCNADWWSEWKLYDYWGQGTQVTVSS | low polyreactivity
4 | QVQLVESGGGLVQAGGSLRLSCAASGSIFTIYAMGWYRQAPGKERELVAAITRSGGSTSYADSVKGRFTISRDNAKNTVYLQMNSLKPEDTAVYYCNKDLNFAKYISSILYDYWGQGTQVTVSS | low polyreactivity
5 | QVQLVESGGGLVQAGGSLRLSCAASGRTFSWYAMGGYRQAPGTERELVASISRGGSKSYADSVKGRFTISRDNAKNTVYLQMNSLKPEYTAVYYCAAGGFARTISYYWGQGTQVTVSS | high polyreactivity
6 | QVQLVESGGGLVQAGGSLRLSSAASGRTFRGNAMGWYSQAPGKERELVAAIRWNGGSTYYADSVKGRFTISRDNAKNTVYLQMNSLKPEDTAVYYCAVSYWYSRYDYWGQGTQVTVSS | high polyreactivity
7 | QVQLVESGGGIVQAGGSLRLSCAASGSIFSYYAMGWYRQAPGKERELVAAITSGGATTYYADSVKGRFTISRDNAKNTVYLQMNSLKPEDTAVYYCAAGYYVYYRWWELDYWGQGTQVTVSS | low polyreactivity
8 | QVQLEESGGGLVQAGGSLRLSCAASGYTFGFYTMGWYRQAPGQERALVAGISWSGGSTYYADSVKGPFTISRDNAKNTVYLQMNSLKQEDTAVFYCAAVSTRVLVNYDSWGQGTQVTVSS | high polyreactivity
9 | QVQLLESGGGLVQAGGSLRLSCAASGSIFYYYTMGWYRQAPGKETELVAAISRGGSTNYADSVKGRFTISRDNAKNTVYLQMNSLKPEDTAVYYCAADRLSGRYAYRFDYWGQGTQVTVSS | low polyreactivity
10 | QVQLVESGGGLVQAGGSLRLSCAASGSTSNIYGMGWYRQAPGKERELVAGISRRGSSTYYADSVKGRFTISRDNAKNSVYLHMNSLKPEDTAVYYCNTRSGGYKHRYDYWGQGTQVTVSS | high polyreactivity
11 | QVQLVESGGGLVQAGGSLRLSCAASGFIFQRYAMGWYRQAPGKESELVAAISSSGGSTYYADSVKGRFTISRDNAKNTVYLQMNSLKPEDTAVNYCAARVPPRTLAYYYWGQGTQVTVSS | high polyreactivity
12 | QVQLVESGGGLVQAGGSLRLSCAASGFTFIYYAMGWYRQAPGKERELVAAITSGGNTYYADSVKGRFTISRDNAKNTVYFQMNSLKPEDTAVYYCNKVPHREWVGGYDYWGQGTQVTVSS | low polyreactivity
13 | QVQLVESGGGLVQAGGSLRLSCAASGNTFCQYAMGWYRQAPGKERELVAAITRSTGSTYYADSVNGRFTISRDNAKNTVYLQMISLKPEDTAVYYCAADFYRHYFRVDSWGQGTQVTVSS | low polyreactivity
14 | QEQLQESGGGLVQACGSLRLSCAASGYIFSHQYMGWYRQAPGKERELVASISPGATTNYADSVKGRFTISRDNAKNTVYLQMNSLKPEDTAVYYFAVYKILDRRLSYWGQGTQVTVSC | high polyreactivity
15 | QVQLVESGGGLVQAGGSLRLSCAASGSIFGYYAMGWYRQAPGKERELVAVITSGATTNYADSVKGRFTISRDNAKNTVYLQMNSLKPEDTAVYYCAARPQVKRGRYGYWGQGTQVTVSS | low polyreactivity
16 | QVQLVESGGGLVQAGGSLRLSWAASGSTFYAYAMGCYRQSPGNERELVATISWSGGSTYADSVKGRFTISRDNAKYTVYLQMNSMTPEDTAVYYCNGSGAFYPTQVHPGYTLWSYDDWGQGTQVTVSS | low polyreactivity
17 | QVQLVESGGGLVQAGGSLRLSCAASGSIFAAYTMGWYRQAPGKERELVAAISVSTVSTNYADSVQGRFTISRDNAKNTVFLQMNRLKPEDTAVYYCNADATDSYPEKDEHDSWGQGTEVTVSS | low polyreactivity
18 | QVQLVESGGGLVQAGGSLRLSCAASGSTFPGNAMGWYRQAPGKERELVASISGGGDSTYYADSVKGRFTISRDNAKNTVYLQMNSLKPEDTAVYYCAADYRQEPGYTGYYYWGQGTQLTVSS | low polyreactivity
19 | QFQLVESGGGLVQAGGSLRLSCAASGVIFEWYTMGWYRQAPGKERELVARISSDGSTTYADSVKGRFTLSRDNAKNTVYFEMNSLKREDTAVYYCAADVSYPGLKYIFDYWGQGTLVTVSS | low polyreactivity
20 | QVQLVESGGGLVQAGGSLRLSCAASGSTFRLYAMGWYRQAPGKERELVAAISSRGGTTYYADSVKGRFTISRDNAKNTVYLQMNSLKPEDTAVYYCAAPRASQYGDDYWGQGTQVTVSS | high polyreactivity
21 | QVQLVESGAGLVHAGGSLRLSCAASGNTFIDYAMGWYRQAPGKERELVASITSGGGSTYYADSVKGRFTISRDNEKNTDYLQMNSLKPEDTAVFFFAAERYNSEAIFRSYDYWGQGSQVTVSS | low polyreactivity
22 | QVQLEESGGGLVQAGGSLRLICAASGIFFIYAMGWYRQARGKERELVADIDSGGPTYYADSVKGRFTISRDNAKNTVYLQMNRLQPEDTAVYYCAFDYSNVDLYSLLFYESDYWGQGTQVTVSS | low polyreactivity

Row | Sequence | polyreactivity (PSR sort gate)
23 | QVQLVESGGGLVQAGGSLRLSCAAAGNTIRVNAMGWYRHAHGKERELVAAISFSGGRTYYADSVKGRFTISRDNAKNTVYLQMNSLKPEDTAVYYCAALRRYPRPNIYGYWGQGTQVTVSS | low polyreactivity
24 | QVQLVESGGGLVQAGGSLRLSCAASGLTFAYYAMGWYRQAPGKERELVAAISYSGGSTYYADSVKGRFTISRDNANKTVYLQMNSLKPEDTAVYYCNRDRNSGFYRRYGYWGQGTQVTVSS | high polyreactivity
25 | QVQHVESGGALVKAGGSLRIRCAASGITFSKYAMGWYRQAPGKEMELVAAITRSGGSTYYADSVKGRFTISRDNGKNTVYLQMNSLKPEDTAVYSCIARGYFTGGDGGSGYWGQVTQVTVSS | high polyreactivity
26 | QVQLVESGGGLVQAGGSLRLSCAASGFTFYKYVMGWYRQAPGKERELVAAITQGGGSTYYADSVKGRFTISRDNAKNTVYLQMNSLKPEDTAVYYCAAVTRGSRGVNFGYWGQGTQVTVSS | high polyreactivity
27 | QVQLVESGRGLVQAGCSLRLSCAASGRTFSLYAMGWYRQAPGKERELVAAITLSAGSTYYADSVKGRFTISRDNEKNTVYLQMNSLKPEDTAVYYCNTRTLVAMGYWGQGTQVTVSS | high polyreactivity
28 | QVQLVESGGGLVQAGGSLRLICAASGFTFTDYAMGWYRQAPGKERELVAVIDSGGSTYYADSVKGRFTISRDNAKNTVYLQMNSLKPEDTAVYYCAAYNGTAPSEDYLGQGTQVTVSS | low polyreactivity
29 | QVQLVESGGGLVQAGGSLRLSCAASGRTFTSYAMGWYRQAPGKERELVAGISSGGSTFYADSVKGRFTISRDNAQNTVYLQMNSLKPEDTAVYYCAADFRRVFSKYSYYLYFDFDYWGQGTQVTVSS | low polyreactivity
30 | QVQLVESGGGLVQAGGSLRLSCAASARTFYRYAMGWYRQAPGKERELVAAITRRSGNTYYADSVKGRFTISRDNAKNTVYLQMNSLKPEDTAVYYFNTVYPRRLIFGYWGQGTQVTVSS | high polyreactivity
31 | QVQLVESGGGLVQAGGSLRLSCAASGYTLYPNAMGRYRQAPGKERELVAAISSGSSTYADSLKGRFTISRDNAKNTVYLQMNSLKPVDTAVYYCNADARIHYDYWGQGTQVTVSS | low polyreactivity
32 | QVQLVESGGGIVQAGGSLRLSCAASGSTFYLYAMGWYRQAPGKERELVAAISTVGSTNYADSVNGRFTISRDNAKNTVYLQMNSLKPEDTAVYYCNAEYYGVVEYDYWGHGTQVTVSS | low polyreactivity
33 | QVQLVESGGGLVQAGGSLRLSCAASGITFRSYAMGWNIQAPGKERELVAAITTGTRTYYADSVKGRFTISRDNAKNTVFLQMKSLKPEDTAVYYCARDGVGRVYGYLTPLGYDYWGHGTQVTVSS | low polyreactivity
34 | QVQLVESGGGRVQAGGSLRLRCAASGRTFRYYAMVWYRQAPGKERELVAAISRTGGSTYYADSVKGRFTISRDNAKNNVYLQMNSLKPEDTAVYYCAARYAEYGSWGQGTQVTVSS | high polyreactivity
35 | QVLLVESGGGLVQAGGSLRLSCAASGSIFWGYDMGWYRQAPGKDSELVAVISWSTTSTYFADSVKGRFTISRDNANNTVYLLMNSLKAEDTAVYYCNSEAYQYWEFDYWGQGTQVTVSS | low polyreactivity
36 | QVQLVESGGGLVQAGGSLRLSCAASGITLFYYAMGWYRQAPGKERELVAAISWSGGSTYYADSVKGRFTISRDNAKNTDDLQMNSLKPEDTAVYYCNRVSRAPFDYWGQATQVTVSS | high polyreactivity
37 | QVQLVESGGGLVQAGGSLRLSCAASGSIFVSNAMGWYRQAPGKEREFDAGITRRGGRTYYADSVKGRFTISRDNAKNTVYLQMNSLKPEDTPVYYCAAKSTTSRFDYWGQGTQVTVSS | high polyreactivity
38 | QDQRVESGGGLDQAGGSLRLSCAASGSIFLVYAMGWYRQAPGKEMEFVAAITWSGGSTYYADSVKGRFTISRDIAKNTVYLQMNSLKPEDTAVYYCAVEIWIPTWYGLSGEYDYWGHGTQVTVSS | low polyreactivity
39 | QVQLEESGGGLVQAGGSLRLSCAASGIISTYYVMGWYRQAPGKERELVAAITGGDSSTYYADSVKGRFTISRDTAKNTVYLQMNSLIPDDTAVYYCAKEYYYARGARYDYWGQGTQVTVSS | low polyreactivity
40 | QVQLEESGGGLVQAGGSLRLSCAASGFTFSRNAMGWYRKAPGKERQLVARISSRGGSTYYADSVKGRFTISRDNAKKTVYLQMNSLKPEDTAVYYCARDPVGTTAARYNYWGQGTQVTVSS | high polyreactivity
41 | QVQLVESRGGLVQAGRSLRLSCAASGITFYSYAMGWYRQEPGKERELVAAITLTGGTTYYADSVKGRFTISRDNAKNTVYLQMNSLKPEDTAVYYCAAQYWWWSRFEYDSCGQGTQVTVSS | low polyreactivity
42 | QVQLVESGGGLVQAGGSLRLSCAASGSIFYDAMGWYRQAPGKERELVAAITSSGGDTSYADSVKGRCTISRDNAKNTVYLQMNSLKPEDTAGYYCNADTYYVEYTAFDYWGQGTQVTVSS | low polyreactivity
43 | QVQLVESGGGLVQEGGSLRLSCAASGSTSQYNDMGWYRQAPGKERELVAAITNCGSTNYADSVKGRFTISRDNAKNTVYLQMNSLKPEDTAVYSCNADYGQERPGYGYGYWGQGTQVTVSS | low polyreactivity
